The record followed here is US20090010876A1, “VISFATIN AND USES THEREOF” (THE TRUSTEES OF COLUMBIA UNIVERSITY IN THE CITY OF NEW YORK, priority 2007, published 2009).

The subject of one test is macrophages. Nature of the test: ER stress-mediated macrophage apoptosis, Alexa-488 annexin V staining. The test is classed as cell-based. To be noted: pre-incubated with visfatin 24 h (FIG. 1A prints 1100 ng/ml, FIG. 1D ±100 ng/ml), then acetyl-LDL + 58035 (FC) 20 h or tunicamycin + fucoidan 24 h. The procedure:
FIG. 1. […] FIG. 1A. Macrophages were pre-incubated 1100 ng/ml visfatin (vis) for 24 h and then incubated with 50 μg/ml acetyl-LDL+10 μg/ml 58035 (FC) for 20 h. Apoptosis was assayed by Alexa-488 annexin V staining (green). One representative image per condition was shown. FIG. 1B. The percentage of apoptosis was quantified (mean±SEM, n=8). FIG. 1C. Macrophages incubated in medium (con) or with visfatin (vis) for 24 h. Whole cell lysates were immunoblotted for the insulin receptor β (IRβ), SR-A, CD36 and β-actin. FIG. 1D. Macrophages were pre-incubated ±100 ng/ml visfatin (vis) for 24 h and then incubated with 5 μg/ml tunicamycin +25 μg/ml fucoidan (TN/F) for 24 h. Apoptosis was assayed and quantified as described in FIG. 1A and FIG. 1B.

Test [1] has as its system unfolded protein response (UPR). Nature of the test: Immunoblot of UPR markers in ER-stressed macrophages. The test is classed as cell-based. To be noted: for distal UPR effectors / distal UPR activation (CHOP, ATF3, XBP-1, ATF4): visfatin 24 h pre-incubation, then FC, 5 μM thapsigargin or 5 μg/ml tunicamycin 5 h, immunoblot. The protocol:
FIG. 2. […] FIG. 2A. Macrophages were preincubated 1100 ng/ml visfatin (vis) for 24 h and then incubated with FC, 5 μM thapsigargin (TG), or 5 μg/ml tunicamycin (TN) for 5 h. Whole cell lysates were immunoblotted for CHOP, ATF3, and β-actin. FIG. 2B. Macrophages were pre-incubated ±100 ng/ml visfatin for 24 h and then incubated with 5 μg/ml TN for 5 h. The nuclear extracts were immunoblotted for XBP-1, ATF4, and nucleophosmin (loading control). FIG. 2C. Nuclei-free cell extracts from the above experiment were immunoblotted with antibodies against PERK, IRE1α, phospho-eIf2α, and β-actin.

The subject of test [2] is ATF4. In words: ATF4 mRNA by RT-QPCR in FC-loaded macrophages. The test is classed as cell-based. To be noted: visfatin 24 h pre-incubation, then acetyl-LDL + 58035 (FC); normalized with 36B4. The protocol: (§1) FIG. 3. […] FIG. 3A. Macrophages were preincubated ±1100 ng/ml visfatin (v) for 24 h and then incubated with 50 μg/ml acetyl-LDL+10 μg/ml 58035 (FC) for indicated times. Total RNA was extracted and subjected to RT-QPCR. The mRNA level of ATF4 was normalized with a control gene 36B4. FIG. 3B. Macrophages were pre-incubated for 24 h±100 ng/ml visfatin (vis) and then incubated for 5 h+5 μg/ml tunicamycin (TN). The cells were pulsed with [35S]methionine/cysteine in methionine-free medium for 15 min and then lysed in RIPA buffer. ATF4 was immunoprecipitated using a rabbit antibody immobilized to protein A/G beads. A normal rabbit IgG served as control. The immunoprecipitate was subjected to SDS-PAGE and autoradiography.

The subject of test [3] is ATF4. Nature of the test: ATF4 protein synthesis, [35S]methionine/cysteine pulse and immunoprecipitation. To be noted: ±100 ng/ml visfatin 24 h, then 5 μg/ml tunicamycin 5 h, 15 min pulse. The format is cell-based. The procedure: as §1
For another test, the system named is insulin receptor. In words: CHOP immunoblot in macrophages from insulin receptor deficient and wild type mice. The test is classed as cell-based. The note with it: IR−/− vs wt macrophages, ±100 ng/ml visfatin 24 h, then 5 μg/ml tunicamycin 5 h. An excerpt: FIG. 4. […] Whole cell lysates were immunoblotted for CHOP and β-actin.
Test [4] relates to macrophages in mouse peritoneal cavity. In words: Acute UPR induction in mouse peritoneal macrophages in vivo, CHOP immunoblot. The note with it: i.v. 5 mg recombinant visfatin, 24 h later i.p. 25 μg tunicamycin, harvest 12 h after, CHOP normalized against phospho-eIf2α. The arrangement: species or system Male C57/B6 mice. The protocol: FIG. 5. […] FIG. 5A. Male C57/B6 mice were subjected to intra-peritoneal (i.p.) injection of 1 ml of 4% thioglycolate to elicit peritoneal macrophages. Three days later, the mice were injected i.v. with 0.1 ml sterile saline ±5 mg recombinant visfatin (vis). Twenty-four hours later, these mice were injected i.p. with 0.5 ml 150 mM dextrose ±25 μg tunicamycin (TN). Twelve hours after TN injection, macrophages were harvested by peritoneal lavage and immediately lysed in RIPA buffer. The lysates were subjected to SDS-PAGE and immunoblotting for CHOP, phospho-eIf2α and β-actin. FIG. 5B. The intensity of CHOP bands were quantified and normalized against that of phospho-eIf2α.

For test [5], the system named is atherosclerotic plaque formation. In words: Atherosclerotic plaque formation in susceptible mice on high cholesterol diet. The format is in vivo. The note with it: vs diluent alone, mice with reduced ApoE1 expression. An excerpt:
Recombinant visfatin polypeptides will be injected into mice susceptible to atherosclerotic plaque formation. In accordance with this prophetic example, the genome of these mice can comprise a transgenic modification wherein ApoE1 gene expression is reduced to levels that promote atherosclerosis. The mice will be continuously fed a high cholesterol diet to promote the formation of atherosclerotic lesions. One group of mice will be administered a pharmaceutically effective amount of visfatin polypeptide in a suitable diluent and another group of mice will be administered diluent alone and the incidence of atherosclerotic plaque formation will be compared between the two groups. The amount of visfatin polypeptide, the length of administration and the frequency of administration are variables that can readily be determine by an individual skilled in the art.

Test [6] concerns macrophages in atherosclerotic plaques. Nature of the test: Macrophage death in atherosclerotic plaques of susceptible mice. The test is classed as in vivo. To be noted: vs diluent alone; mice with reduced ApoE1 expression, high cholesterol diet. From the text: Recombinant visfatin polypeptides will be injected into mice susceptible to atherosclerotic plaque formation. In accordance with this prophetic example, the genome of these mice can comprise a transgenic modification wherein ApoE1 gene expression is reduced to levels that promote atherosclerosis. The mice will be continuously fed a high cholesterol diet to promote the formation of atherosclerotic lesions. One group of mice will be administered a pharmaceutically effective amount of visfatin polypeptide in a suitable diluent and another group of mice will be administered diluent alone and the amount of macrophage death in atherosclerotic plaques will be compared between the two groups. The amount of visfatin polypeptide, the length of administration and the frequency of administration are variables that can readily be determine by an individual skilled in the art.

The test system of test [7] is ER stress related disease. Nature of the test: ER-stress related disease in susceptible mice. The format is in vivo. The note with it: vs diluent alone; mice susceptible to an ER-stress related disease.

B1: visfatin: adipokine protein, having a molecular weight of about 52,000 daltons; polypeptide having SEQ ID NO:1 (protein, listed as Homo sapiens)
chain: MNPAAEAEFNILLATDSYKVTHYKQYPPNTSKVYSYFECREKKTENSKLRKVKYEETVFYGLQYILNKYLKGKVVTKEKIQEAKDVYKEHFQDDVFNEKGWNYILEKYDGHLPIEIKAVPEGFVIPRGNVLFTVENTDPECYWLTNWIETILVQSWYPITVATNSREQKKILAKYLLETSGNLDGLEYKLHDFGYRGVSSQETAGIGASAHLVNFKGTDTVAGLALIKKYYGTKDPVPGYSVPAAEHSTITAWGKDHEKDAFEHIVTQFSSVPVSVVSDSYDIYNACEKIWGEDLRHLIVSRSTQAPLIIRPDSGNPLDTVLKVLEILGKKFPVTENSKGYKLLPPYLRVIQGDGVDINTLQEVCVLY
Consider B1, for which the “ER-stress mediated apoptosis of macrophages” value is “protects macrophages from ER-stress mediated apoptosis” in the test on macrophages and “protects macrophages from ER stress-mediated apoptosis” with macrophages (listed as Visfatin). For the same molecule, the “distal UPR effectors / distal UPR activation (CHOP, ATF3, XBP-1, ATF4)” value in test [1] is listed as “directly targets distal UPR effectors”; in test [1] (listed as Visfatin), “suppresses the distal UPR activation”. Further, in test [1] (±100 ng/ml visfatin 24 h, then 5 μg/ml tunicamycin 5 h, nuclei-free cell extracts), the “upstream UPR activators (PERK, IRE1α, phospho-eIf2α)” value was “without inhibiting upstream UPR activators”. The “mRNA level of ATF4” value in the test on ATF4 [2] is on record as “intact”. Further, the “translation of ATF4 / ATF4 protein synthesis” value in the test with ATF4 [3] is “halted”; in the test on ATF4 [3] (listed as Visfatin) it was “suppresses ATF4 protein synthesis”. In the test on insulin receptor, the “UPR-suppressing effect, dependence on the insulin receptor” value is given as “independent of the insulin receptor”. Moreover, the “acute UPR induction in macrophages of the mouse peritoneal cavity” value is on record as “suppresses the acute UPR induction of macrophages in mouse peritoneal cavity” in test [4] (listed as Recombinant visfatin) and “suppress acute UPR induction in macrophages of the mouse peritoneal cavity” in [4] (listed as recombinant visfatin). For the same molecule, in [5], the “incidence of atherosclerotic plaque formation” value was “lower incidence of atherosclerotic plaque formation”. Further, the “amount of macrophage death in atherosclerotic plaques” value in test [6] is reported as “lower amount of cell death”. Further, the “incidence of the ER stress related disease” value in test [7] was “lower incidence of the ER stress related disease”.
